Source: patent US20220380455A1 (Alector, published 2022)
Values joined by “and” are separate entries in the source; they are usually repeats but may differ in a detail not shown here. Equal values may be shown once.

T1: BSA-MS4A6A-ECL2 peptide (human, BSA-conjugated)
T1 construct: Synthetic peptide derived from ECL2, conjugated to BSA, coated on the ELISA plate; also called MS4A6A-ECL2 BSA conjugated peptide; BSA-MS4A6A-ELC2 peptide
T1 peptide: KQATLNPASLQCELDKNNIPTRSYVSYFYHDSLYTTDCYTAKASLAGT

T2: MS4A6A ECL1 peptide (human)
T2 construct: the description elsewhere gives ECL1 as 68-84; Human and cyno ECL1 are said to be identical
T2 peptide: SASFSPNFTQVTSTLLNS

T3: cynomolgus (cyno) MS4A6A (cynomolgus, UniProt Q9H2W1 1-246 (human entry))
T3 construct: Full-length protein expressed in transfected HEK293, U937 or K562 cells (flow cytometry)
T3 chain: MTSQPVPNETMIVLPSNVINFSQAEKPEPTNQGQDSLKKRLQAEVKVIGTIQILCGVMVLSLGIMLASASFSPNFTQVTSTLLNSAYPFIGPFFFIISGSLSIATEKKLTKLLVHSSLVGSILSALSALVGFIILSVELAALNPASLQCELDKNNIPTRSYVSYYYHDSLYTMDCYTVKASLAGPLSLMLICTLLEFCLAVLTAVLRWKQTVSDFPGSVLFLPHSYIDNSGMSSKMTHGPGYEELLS

T4: MS4A6A ECL2 peptide (human)
T4 construct: also called MS4A6A ECL-2 peptides
T4 peptide: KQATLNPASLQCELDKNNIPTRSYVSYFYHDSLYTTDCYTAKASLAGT


Columns and labels:
BSA-MS4A6A-ECL2 peptide = molecular target: T1, BSA-MS4A6A-ECL2 peptide; test: peptide ELISA, hybridoma supernatant
Method: (§1) Anti-MS4A6A hybridoma supernatants were tested for binding to MS4A6A peptides derived from ECL1 (amino acid residues 68-85 of human MS4A6A of SEQ ID NO:1) and ECL2 (amino acid residues 138-185 of human MS4A6A of SEQ ID NO:1) sequences, using an enzyme-linked immunosorbent assay (ELISA). Briefly, 96-well polystyrene plates were coated with 1-10 μg/mL of synthetic free or BSA-conjugated peptides in coating buffer (0.05M carbonate buffer, pH9.6, Millipore Sigma C3041) overnight at 4° C. Coated plates were then blocked with ELISA diluent (PBS+0.5% BSA+0.05% Tween20) for 1-hour, washed 3×300 μL in PBST (PBS+0.05% Tween20, Thermo 28352), and then the antibodies were added at various dilutions (100-1000×) in ELISA diluent. After 30 mins incubation (room temperature, with shaking), the plates were washed 3×300 μl in PBST. A secondary anti-mouse HRP antibody (Jackson Immunoresearch CAT #115-035-003) was added at a 1:1000 dilution in ELISA diluent (50 μL/well) and incubated for 30 minutes at room temperature with shaking. After a final set of washes (3×300 μl in PBST), 50 μL of TMB substrate (BioFx TMBW-1000-01) was added and the reaction was then quenched after 5-10 mins with 50 μL of stop solution (BioFx BSTP-1000-01). The quenched reaction wells were detected for absorbance at […] with a BioTek Synergy Microplate Reader using GENS 2.04 software.

MS4A6A ECL1 peptide [1] = molecular target: T2, MS4A6A ECL1 peptide; test: peptide ELISA, hybridoma supernatant
Method: as §1

cynomolgus (cyno) MS4A6A [2] = molecular target: T3, cynomolgus (cyno) MS4A6A; test: flow cytometry, hybridoma supernatant, HEK293 transfected with cyno MS4A6A over parental HEK293; Screen 1
Method: (§2) Positive clones were expanded and then rescreened for specificity against HEK293 cells overexpressing cyno MS4A6A and parental HEK293 cells. Briefly, previously prepared, cryopreserved transiently-transfected cells were labeled with LIVE/DEAD Fixable Aqua Dead Cell Stain Kit (ThermoFisher Scientific L34957) on ice for 30 minutes. After a wash with PBS, 2×10⁵ cells were aliquoted per well in 96-well round bottom plates and incubated with 50 μl of culture supernatant on ice for 30 mins. […] Following this secondary incubation, the cells were again washed twice with ice-cold FACS buffer and resuspended in a final volume of 200 μl of FACS buffer. Analysis was performed on a FACS Canto system (BD Biosciences), with sort gates drawn to exclude dead (Aqua-positive) cells. […] The screen was repeated twice, and the numbers reported here represent the ratio of mean fluorescence level in transfected cells over parental cells.

cynomolgus (cyno) MS4A6A [3] = molecular target: T3, cynomolgus (cyno) MS4A6A; test: flow cytometry, hybridoma supernatant, HEK293 transfected with cyno MS4A6A over parental HEK293; Screen 2
Method: as §2

MS4A6A ECL2 peptide [4] = molecular target: T4, MS4A6A ECL2 peptide; test: array SPR (Carterra MX-96), antibody captured on anti-mouse IgG-Fc, ECL2 peptide injected
Method: (§3) Binding kinetic characterization of the purified antibodies to MS4A6A ECL1 and ECL2 peptides was performed by Carterra (South San Francisco, Calif.) using a proprietary array Surface Plasmon Resonance (SPR) instrument (MX-96) as follows. Antibodies were printed onto a CMD5OOD chip (Xantec #SPMX CMD500D lot #SC CMD500D0117.a Exp. 31.12.18) using the Continuous Flow Microspotter (CFM). First, the chip was activated with 100 mM MES pH 5.5, 100 μL EDC (133 mM final), 100 μL of S-NHS (33.3 mM final), for 7 minutes. A lawn of anti-mouse IgG-Fc (Jackson ImmunoResearch CAT #115-005-071 lot#130410) was injected for 15 minutes to establish a surface density of 10000-12000 RU, after which the chip surface was deactivated with 1 M ethanolamine at pH 8.5 for 10 minutes. Anti-MS4A6A antibodies in question, in the form of hybridoma supernatants diluted 2:1 with HBS-EP+buffer (Teknova CAT #H8022), were then printed as duplicates with a 20 minute and a 5 minutes print from the same sample solution. Control antibodies were diluted to 20 μ/ml for printing.
(§4) To perform kinetic analysis, the peptides in question were prepared in HBS-EP+buffer with lmg/ml BSA at final assay concentrations of 2000 nM, 400 nM, 80 nM, 16 nmM, and 3.2 nM. These were then injected on the chip for five minutes, followed by a seven-minute dissociation period at 8 uL per second in a non-regenerative kinetic series. Duplicate measurements for each anti-MS4A6A antibody were taken to ensure reproducibility.
(§5) Kₐ (association rate constant; Kₒₙ), Kd (dissociation rate constant; Koff) and KD (equilibrium constant) to MS4A6A ECL-2 peptides were calculated for each of the 23 anti-MS4A6A antibodies tested, the results of which are shown below in Table 5 (clones that bound too weakly to determine these values are denoted as N/A in Table 5).

MS4A6A ECL1 peptide [5] = molecular target: T2, MS4A6A ECL1 peptide; test: array SPR (Carterra MX-96), antibody captured, peptide injected
Method: as §3, §4, §5

MS4A6A ECL2 peptide [6] = molecular target: T4, MS4A6A ECL2 peptide; test: array SPR (Carterra MX-96), antibody captured, peptide injected; both duplicates N/A
Method: as §3, §4, §5

Binder | binding result (BSA-MS4A6A-ECL2 peptide) | binding result (MS4A6A ECL1 peptide [1]) | ratio of APC MFI on MS4A6A+/HEK parental cells (cynomolgus (cyno) MS4A6A [2]) [ratio] | ratio of APC MFI on MS4A6A+/HEK parental cells (cynomolgus (cyno) MS4A6A [3]) [ratio] | Kd (MS4A6A ECL2 peptide [4]) | koff (MS4A6A ECL2 peptide [4]) | kon (MS4A6A ECL2 peptide [4]) | binding result (MS4A6A ECL1 peptide [5]) | binding result (MS4A6A ECL2 peptide [6])
6A-6 (antibody, V domains shown, Mouse hybridoma antibody, tested as hybridoma supernatant (mouse IgG, detected or captured via anti-mouse IgG Fc); also called anti-MS4A6A antibody 6A-6) VH: QIQLVQSGPELKKPGESVKISCKASGYTFANYGMNWVKLAPGKGLKWMGYINIYSGKSRYADDFKGRFAFSLETSASTAYLQINNLKNEDMATYFCARDNDYFDYWGQGTTLTVSS VL: DIVLTQSPATLSVTPGDTVSLSCRASQSISDNLHWYQQKSHESPGLLIKYASQSISGIPSRFSGRGSGTDFTLSINSVDSEDFGVYFCQQSNSWPYTFGGGTKLEIK | binds | no binding | 13.5 | 62.1 | – | – | – | – | –
6A-8 (antibody, V domains shown, Mouse hybridoma antibody, tested as hybridoma supernatant (mouse IgG, detected or captured via anti-mouse IgG Fc); also called anti-MS4A6A antibody 6A-8) VH: QVQLQQSGAELARPGTSVKLSCKASGYTFTDYYINWVKQRNGQGLEWIGEIYPRSGNAYYNEKFRGKATLTTDKSSSTAYMQLSGLTSEDSAVYFCARGDGNWYFDVWGAGTTVIVSS VL: DIVMTQSPSSLSVSAGEKVTMSCKSSQSLLNSGDQENYLVWYQQKPGQPPKLLIYGASTRESGVPDRFTGSGSGTDFTLTISSVLAEDLAVYYCQSDHSYPLTFGAGTKLELK | – | no binding | 26.7 | 69.5 | 170 nM | 0.001 s⁻¹ | 6300 M⁻¹ s⁻¹ | – | –
6A-2 (antibody, V domains shown, Mouse hybridoma antibody, tested as hybridoma supernatant (mouse IgG, detected or captured via anti-mouse IgG Fc); also called anti-MS4A6A antibody 6A-2) VH: DVQLQESGPGLVKPSQSLSLTCSVTGYSITSGYYWNWIRQFPGNKLEWLGYITYDGDTDYNPSLKNRVSITRDTSKNQFFLNLISVTPEDTATYYCAREDSFGYWGQGTLVTVSA VL: not shown | – | – | 25.7 | 75.5 | 200 nM and 120 nM | 0.001 s⁻¹ and 0.00098 s⁻¹ | 5300 M⁻¹ s⁻¹ and 8300 M⁻¹ s⁻¹ | no binding (tested: 2000 nM) | –
6A-23 (antibody, V domains shown, Mouse hybridoma antibody, tested as hybridoma supernatant (mouse IgG, detected or captured via anti-mouse IgG Fc); also called anti-MS4A6A antibody 6A-23) VH: EVNLEESGGDLVQPGGSMKLSCLASGFTFSDAWMDWVRQSPEKGLEWVAEIKNKANNYVTFYAASVKGRFTISRDDSKSSVYLQMNSLRLEDTGIYFCTRGSVYGNWFPYWGQGTLVTVSA VL: DIVMSQSPSSLAVSAGEKVTMTCKSSQSLFNSRTRKNYLTWYQQKPGQSPKVLIYWASTRESGVPDRFTGSGSGTDFSLTINSVQADDLAVYYCKQSYNLLTFGAGTKLELK | – | no binding | 156 | 82 | 120 nM and 150 nM | 0.00065 s⁻¹ and 0.0008 s⁻¹ | 5400 M⁻¹ s⁻¹ and 5500 M⁻¹ s⁻¹ | – | –
6A-7 (antibody, V domains shown, Mouse hybridoma antibody, tested as hybridoma supernatant (mouse IgG, detected or captured via anti-mouse IgG Fc); also called anti-MS4A6A antibody 6A-7) VH: QVQLQQSGAELARPGASVKMSCKASGYTFTSYAMHWVKQRPGQGLEWIGYINPSSGYTYYNQKFKDKATLTADKSSSTAYMQLSSLTSEDSAVYYCARSYYGNYEGYLDVWGAGTTVTVSS VL: NIVLTQSPASLAVSLGQRATISCRASESVESYGKSFIHWYQQKPGQPPKLLIFLASNLESGVPARFSGSGSRTDFTLTIDPVEADDAATYYCQQNNVGPYTFGGGTKLEIK | no binding | no binding | 3.6 | 8.3 | – | – | – | – | no binding (tested: 2000 nM)
